According to publication PMC10786891, “Massively parallel profiling of RNA-targeting CRISPR-Cas13d”:

T1: EsCas13d, nuclease-dead (Eubacterium siraeum, UniProt B0MS50, R295A;H300A;R849A;H854A)
T1 sequence: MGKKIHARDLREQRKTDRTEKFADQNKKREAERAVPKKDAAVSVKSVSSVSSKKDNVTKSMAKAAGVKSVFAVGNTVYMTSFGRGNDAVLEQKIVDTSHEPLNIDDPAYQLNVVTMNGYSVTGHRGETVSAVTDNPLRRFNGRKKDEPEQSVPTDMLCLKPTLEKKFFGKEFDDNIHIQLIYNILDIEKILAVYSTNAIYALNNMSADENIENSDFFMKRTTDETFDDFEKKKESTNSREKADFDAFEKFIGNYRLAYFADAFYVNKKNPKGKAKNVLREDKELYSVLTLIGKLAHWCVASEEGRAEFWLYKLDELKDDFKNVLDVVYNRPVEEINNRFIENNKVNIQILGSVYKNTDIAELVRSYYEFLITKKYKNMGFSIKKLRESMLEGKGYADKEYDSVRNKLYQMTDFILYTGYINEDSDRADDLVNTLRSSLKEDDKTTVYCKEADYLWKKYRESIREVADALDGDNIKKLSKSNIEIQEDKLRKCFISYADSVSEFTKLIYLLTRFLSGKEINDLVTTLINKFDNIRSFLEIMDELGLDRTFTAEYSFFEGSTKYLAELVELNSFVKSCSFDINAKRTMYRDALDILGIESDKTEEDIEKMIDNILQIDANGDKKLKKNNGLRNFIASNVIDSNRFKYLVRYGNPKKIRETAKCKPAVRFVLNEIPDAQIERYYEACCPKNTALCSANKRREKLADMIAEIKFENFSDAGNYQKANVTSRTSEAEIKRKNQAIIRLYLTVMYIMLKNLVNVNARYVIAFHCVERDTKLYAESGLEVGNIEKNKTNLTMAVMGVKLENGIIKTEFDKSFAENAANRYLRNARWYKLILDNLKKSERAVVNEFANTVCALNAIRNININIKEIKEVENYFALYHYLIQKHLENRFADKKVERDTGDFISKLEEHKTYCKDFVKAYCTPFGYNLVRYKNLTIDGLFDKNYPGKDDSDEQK


What follows are binders tested against T1, EsCas13d, nuclease-dead (assay: crRNA (strand 1, pre-loaded); Mg2+; 40 mM Tris-HCl pH 7.5, 150 mM NaCl, 6 mM MgCl2, 1 mM DTT, 0.1% Tween-20, 0.2 mg/ml BSA; 25 C; 10 min per concentration, then washed). Conditions: tags: His6-TwinStrep-SUMO cleaved; N-terminal SNAP kept (SNAP-Surface 488); label: 3' end held by stalled T7 RNA polymerase.

| Binder | Kd [nM] |
| --- | --- |
| target 1 G12C,C22U (mixed) RNA 1: CACCCGUGCAAAAAUGCAGGGGUCUAAAACUGAGCGGAUAACCUCUCUAUGG RNA 2: GGGAAUGGAUCCACAUCUACGAAUUCGUAUCAUAGAGAGCUUAUCCGCUCACCGAGAUCGGAAGAGCACACGU | 23.5 ± 1.5 |
| target 1 insU 3' of 7,insG 3' of 1 (mixed) RNA 1: CACCCGUGCAAAAAUGCAGGGGUCUAAAACUGAGCGGAUAACCUCUCUAUGG RNA 2: GGGAAUGGAUCCACAUCUACGAAUUCGUACCAUAGAGAGGUUAUCUCGCUCAGCCGAGAUCGGAAGAGCACACGU | 13.8 ± 0.6 |
| target 1 insC 3' of 19,insA 3' of 19 (mixed) RNA 1: CACCCGUGCAAAAAUGCAGGGGUCUAAAACUGAGCGGAUAACCUCUCUAUGG RNA 2: GGGAAUGGAUCCACAUCUACGAAUUCGUACCAUCAAGAGAGGUUAUCCGCUCACCGAGAUCGGAAGAGCACACGU | 31.3 ± 2.9 |
| target 1 insA 3' of 3,insG 3' of 2 (mixed) RNA 1: CACCCGUGCAAAAAUGCAGGGGUCUAAAACUGAGCGGAUAACCUCUCUAUGG RNA 2: GGGAAUGGAUCCACAUCUACGAAUUCGUACCAUAGAGAGGUUAUCCGCUACGACCGAGAUCGGAAGAGCACACGU | 7.05 ± 0.31 |
| target 1 C7A,A9G (mixed) RNA 1: CACCCGUGCAAAAAUGCAGGGGUCUAAAACUGAGCGGAUAACCUCUCUAUGG RNA 2: GGGAAUGGAUCCACAUCUACGAAUUCGUACCAUAGAGAGGUUGUACGCUCACCGAGAUCGGAAGAGCACACGU | 11.5 ± 0.5 |
| target 1 C2A,C22A (mixed) RNA 1: CACCCGUGCAAAAAUGCAGGGGUCUAAAACUGAGCGGAUAACCUCUCUAUGG RNA 2: GGGAAUGGAUCCACAUCUACGAAUUCGUAACAUAGAGAGGUUAUCCGCUAACCGAGAUCGGAAGAGCACACGU | 17.8 ± 3.3 |
| target 1 complement block 9-12 (mixed) RNA 1: CACCCGUGCAAAAAUGCAGGGGUCUAAAACUGAGCGGAUAACCUCUCUAUGG RNA 2: GGGAAUGGAUCCACAUCUACGAAUUCGUACCAUAGAGAGCAAUUCCGCUCACCGAGAUCGGAAGAGCACACGU | 19.9 ± 2.7 |
| target 1 insU 3' of 12,insG 3' of 10 (mixed) RNA 1: CACCCGUGCAAAAAUGCAGGGGUCUAAAACUGAGCGGAUAACCUCUCUAUGG RNA 2: GGGAAUGGAUCCACAUCUACGAAUUCGUACCAUAGAGAGGUUUGAUCCGCUCACCGAGAUCGGAAGAGCACACGU | 13.1 ± 0.5 |
| target 1 del11,del22 (mixed) RNA 1: CACCCGUGCAAAAAUGCAGGGGUCUAAAACUGAGCGGAUAACCUCUCUAUGG RNA 2: GGGAAUGGAUCCACAUCUACGAAUUCGUACAUAGAGAGGUAUCCGCUCACCGAGAUCGGAAGAGCACACGU | 78 ± 33 |
| target 1 G12A,A16G (mixed) RNA 1: CACCCGUGCAAAAAUGCAGGGGUCUAAAACUGAGCGGAUAACCUCUCUAUGG RNA 2: GGGAAUGGAUCCACAUCUACGAAUUCGUACCAUAGGGAGAUUAUCCGCUCACCGAGAUCGGAAGAGCACACGU | 48 ± 5 |
| target 1 complement block 3-5 (mixed) RNA 1: CACCCGUGCAAAAAUGCAGGGGUCUAAAACUGAGCGGAUAACCUCUCUAUGG RNA 2: GGGAAUGGAUCCACAUCUACGAAUUCGUACCAUAGAGAGGUUAUCCCGACACCGAGAUCGGAAGAGCACACGU | 10.5 ± 1 |
| target 1 insA 3' of 19,insC 3' of 11 (mixed) RNA 1: CACCCGUGCAAAAAUGCAGGGGUCUAAAACUGAGCGGAUAACCUCUCUAUGG RNA 2: GGGAAUGGAUCCACAUCUACGAAUUCGUACCAUAAGAGAGGUCUAUCCGCUCACCGAGAUCGGAAGAGCACACGU | 100 ± 40 |
| target 1 insC 3' of 14,insG 3' of 7 (mixed) RNA 1: CACCCGUGCAAAAAUGCAGGGGUCUAAAACUGAGCGGAUAACCUCUCUAUGG RNA 2: GGGAAUGGAUCCACAUCUACGAAUUCGUACCAUAGAGACGGUUAUCGCGCUCACCGAGAUCGGAAGAGCACACGU | 41 ± 8 |
| target 1 insC 3' of 17,insC 3' of 13 (mixed) RNA 1: CACCCGUGCAAAAAUGCAGGGGUCUAAAACUGAGCGGAUAACCUCUCUAUGG RNA 2: GGGAAUGGAUCCACAUCUACGAAUUCGUACCAUAGCAGAGCGUUAUCCGCUCACCGAGAUCGGAAGAGCACACGU | 48 ± 7 |
| target 1 U19C,C22U (mixed) RNA 1: CACCCGUGCAAAAAUGCAGGGGUCUAAAACUGAGCGGAUAACCUCUCUAUGG RNA 2: GGGAAUGGAUCCACAUCUACGAAUUCGUAUCACAGAGAGGUUAUCCGCUCACCGAGAUCGGAAGAGCACACGU | 45 ± 6 |
| target 1 insA 3' of 19,insG 3' of 8 (mixed) RNA 1: CACCCGUGCAAAAAUGCAGGGGUCUAAAACUGAGCGGAUAACCUCUCUAUGG RNA 2: GGGAAUGGAUCCACAUCUACGAAUUCGUACCAUAAGAGAGGUUAUGCCGCUCACCGAGAUCGGAAGAGCACACGU | 32.7 ± 2.3 |
| target 1 G5A,U8G (mixed) RNA 1: CACCCGUGCAAAAAUGCAGGGGUCUAAAACUGAGCGGAUAACCUCUCUAUGG RNA 2: GGGAAUGGAUCCACAUCUACGAAUUCGUACCAUAGAGAGGUUAGCCACUCACCGAGAUCGGAAGAGCACACGU | 38 ± 2.4 |
| target 1 insG 3' of 10,insC 3' of 9 (mixed) RNA 1: CACCCGUGCAAAAAUGCAGGGGUCUAAAACUGAGCGGAUAACCUCUCUAUGG RNA 2: GGGAAUGGAUCCACAUCUACGAAUUCGUACCAUAGAGAGGUUGACUCCGCUCACCGAGAUCGGAAGAGCACACGU | 14.9 ± 0.6 |
| target 1 insU 3' of 20,insU 3' of 20 (mixed) RNA 1: CACCCGUGCAAAAAUGCAGGGGUCUAAAACUGAGCGGAUAACCUCUCUAUGG RNA 2: GGGAAUGGAUCCACAUCUACGAAUUCGUACCAUUUAGAGAGGUUAUCCGCUCACCGAGAUCGGAAGAGCACACGU | 13.5 ± 1 |
| target 1 A1G,U8C (mixed) RNA 1: CACCCGUGCAAAAAUGCAGGGGUCUAAAACUGAGCGGAUAACCUCUCUAUGG RNA 2: GGGAAUGGAUCCACAUCUACGAAUUCGUACCAUAGAGAGGUUACCCGCUCGCCGAGAUCGGAAGAGCACACGU | 10.2 ± 0.9 |
| target 1 insC 3' of 13,insG 3' of 1 (mixed) RNA 1: CACCCGUGCAAAAAUGCAGGGGUCUAAAACUGAGCGGAUAACCUCUCUAUGG RNA 2: GGGAAUGGAUCCACAUCUACGAAUUCGUACCAUAGAGAGCGUUAUCCGCUCAGCCGAGAUCGGAAGAGCACACGU | 9.17 ± 0.3 |
| target 1 A1C,U8C (mixed) RNA 1: CACCCGUGCAAAAAUGCAGGGGUCUAAAACUGAGCGGAUAACCUCUCUAUGG RNA 2: GGGAAUGGAUCCACAUCUACGAAUUCGUACCAUAGAGAGGUUACCCGCUCCCCGAGAUCGGAAGAGCACACGU | 8.1 ± 0.4 |
| target 1 insC 3' of 13,insA 3' of 2 (mixed) RNA 1: CACCCGUGCAAAAAUGCAGGGGUCUAAAACUGAGCGGAUAACCUCUCUAUGG RNA 2: GGGAAUGGAUCCACAUCUACGAAUUCGUACCAUAGAGAGCGUUAUCCGCUCAACCGAGAUCGGAAGAGCACACGU | 9 ± 0.5 |
| target 1 U8C (mixed) RNA 1: CACCCGUGCAAAAAUGCAGGGGUCUAAAACUGAGCGGAUAACCUCUCUAUGG RNA 2: GGGAAUGGAUCCACAUCUACGAAUUCGUACCAUAGAGAGGUUACCCGCUCACCGAGAUCGGAAGAGCACACGU | 11.2 ± 0.4 |
| target 1 insC 3' of 13,insC 3' of 1 (mixed) RNA 1: CACCCGUGCAAAAAUGCAGGGGUCUAAAACUGAGCGGAUAACCUCUCUAUGG RNA 2: GGGAAUGGAUCCACAUCUACGAAUUCGUACCAUAGAGAGCGUUAUCCGCUCACCCGAGAUCGGAAGAGCACACGU | 8.9 ± 0.6 |
| target 1 C6A,G13A (mixed) RNA 1: CACCCGUGCAAAAAUGCAGGGGUCUAAAACUGAGCGGAUAACCUCUCUAUGG RNA 2: GGGAAUGGAUCCACAUCUACGAAUUCGUACCAUAGAGAAGUUAUCAGCUCACCGAGAUCGGAAGAGCACACGU | 6.6 ± 0.4 |
| target 1 del3,del17 (mixed) RNA 1: CACCCGUGCAAAAAUGCAGGGGUCUAAAACUGAGCGGAUAACCUCUCUAUGG RNA 2: GGGAAUGGAUCCACAUCUACGAAUUCGUACCAUAAGAGGUUAUCCGCCACCGAGAUCGGAAGAGCACACGU | 67 ± 17 |
| target 1 insG 3' of 19,insU 3' of 4 (mixed) RNA 1: CACCCGUGCAAAAAUGCAGGGGUCUAAAACUGAGCGGAUAACCUCUCUAUGG RNA 2: GGGAAUGGAUCCACAUCUACGAAUUCGUACCAUGAGAGAGGUUAUCCGCUUCACCGAGAUCGGAAGAGCACACGU | 53 ± 6 |
